# ± gives the standard deviation of the averaged measurements.
# What was measured:
# [1] = system: Saccharomyces cerevisiae; experiment: protein stability index of tFT-peptide fusion (C-terminal peptide) (PSI (0-1 scale)); higher = more stable (slower turnover); conditions: genetic background: wild type; temperature: 30 C
# [2] = system: Saccharomyces cerevisiae; experiment: as above
# Description: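 MPS profiling in S. cerevisiae of the tFT-X12 degron library: putative degron peptides plus stable controls, 12 aa, fused to the C-terminus of a sfGFP-mCherry timer. Cells are FACS-sorted into 8 mCherry/sfGFP bins and deep-sequenced. PSI runs from 0 (unstable) to 1 (stable). Backgrounds are wild type, das1Δ and doa10Δ at 30 °C, and wild type, das1Δ, cdc34-1 and cdc53-1 at 37 °C; 2-3 technical replicates each.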
# [3] = genetic background: cdc34-1, temperature: 37 C
# [4] = genetic background: cdc53-1, temperature: 37 C
# [5] = genetic background: das1 deletion, temperature: 30 C
# [6] = genetic background: das1 deletion, temperature: 37 C
# [7] = genetic background: doa10 deletion, temperature: 30 C
# [8] = genetic background: wild type, temperature: 30 C
# [9] = genetic background: wild type, temperature: 37 C
# 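Also: PSI is a weighted mean of sequencing reads over stability bins, variants kept only with over 10 reads, mCherry proximal and sfGFP distal, peptide attached via GGGS linker.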
Sequence,protein stability index [1],"protein stability index [2, 3]","protein stability index [2, 4]","protein stability index [2, 5]","protein stability index [2, 6]","protein stability index [2, 7]","protein stability index [2, 8]","protein stability index [2, 9]"
LFIFYCFFFLVR,0.352 ± 0.051,0.27 ± 0.059,0.379 ± 0.087,0.318 ± 0.043,0.395 ± 0.0053,0.359 ± 0.029,0.294 ± 0.0066,0.3824 ± 0.002
LFLEVCFFRLYF,0.465 ± 0.032,0.511 ± 0.055,0.555 ± 0.037,0.447 ± 0.032,0.54 ± 0.011,0.46 ± 0.02,0.453 ± 0.032,0.5086 ± 0.0018
LFLLFLCLSSLF,0.435 ± 0.021,0.561 ± 0.0098,0.584 ± 0.012,0.487 ± 0.02,0.591 ± 0.032,0.448 ± 0.016,0.436 ± 0.035,0.5205 ± 0.0021
LFLLSVNLLLGY,0.237 ± 0.065,0.0581 ± 0.025,0.0949 ± 0.028,0.138 ± 0.035,0.191 ± 0.035,0.105 ± 0.0095,0.112 ± 0.04,0.163 ± 0.0081
LFLPFLPTLALL,0.231 ± 0.012,0.795 ± 0.029,0.823 ± 0.013,0.686 ± 0.032,0.7901 ± 0.0056,0.598 ± 0.021,0.623 ± 0.022,0.7359 ± 0.0023
LFLYDFIALRCS,0.415 ± 0.038,0.46 ± 0.016,0.55 ± 0.015,0.405 ± 0.025,0.566 ± 0.032,0.2104 ± 0.00034,0.24 ± 0.024,0.413 ± 0.012
LFRGVWYYFLVR,0.507 ± 0.028,0.486 ± 0.041,0.5274 ± 0.0022,0.445 ± 0.021,0.61 ± 0.0087,0.504 ± 0.029,0.438 ± 0.029,0.586 ± 0.019
LFSSFFVFRLLV,0.146 ± 0.011,0.322 ± 0.031,0.432 ± 0.039,0.455 ± 0.028,0.581 ± 0.0041,0.0949 ± 0.016,0.0904 ± 0.029,0.0847 ± 0.0039
LFVFVLAGFCCV,0.381 ± 0.0073,0.352 ± 0.0073,0.436 ± 0.017,0.32 ± 0.025,0.485 ± 0.011,0.287 ± 0.0059,0.308 ± 0.039,0.432 ± 0.041
LFVPVFSFGFVC,0.226 ± 0.011,0.485 ± 0.0071,0.558 ± 0.0077,0.415 ± 0.027,0.589 ± 0.009,0.121 ± 0.02,0.145 ± 0.014,0.237 ± 0.015
LFWWCMVFISLI,0.3 ± 0.019,0.3069 ± 0.0013,0.37 ± 0.015,0.285 ± 0.041,0.413 ± 0.0096,0.212 ± 0.017,0.231 ± 0.029,0.3395 ± 0.00099
LFYVCPFVCFLC,0.324 ± 0.058,0.554 ± 0.044,0.6288 ± 0.001,0.516 ± 0.017,0.61052 ± 9.9e-05,0.307 ± 0.0078,0.335 ± 0.026,0.438 ± 0.033
LGFFPSPVLCVF,0.275 ± 0.02,0.104 ± 0.056,0.104 ± 0.027,0.197 ± 0.024,0.209 ± 0.0036,0.171 ± 0.0087,0.193 ± 0.018,0.175 ± 0.0038
LGGVGTLVHCFV,0.452 ± 0.053,0.615 ± 0.026,0.635 ± 0.016,0.36 ± 0.022,0.607 ± 0.0081,0.351 ± 0.013,0.375 ± 0.014,0.597 ± 0.02
LGRYHPWLLFLC,0.114 ± 0.027,0.261 ± 0.011,0.451 ± 0.021,0.457 ± 0.035,0.614 ± 0.0077,0.0687 ± 0.016,0.0711 ± 0.025,0.104 ± 0.0076
LHSDHLRIILRI,0.514 ± 0.023,0.5966 ± 0.0013,0.63 ± 0.036,0.567 ± 0.036,0.659 ± 0.036,0.382 ± 0.018,0.376 ± 0.0098,0.576 ± 0.022
LIAGTRRIPLFI,0.406 ± 0.039,0.593 ± 0.048,0.638 ± 0.022,0.515 ± 0.043,0.665 ± 0.0049,0.225 ± 0.0037,0.261 ± 0.053,0.466 ± 0.015
LISGVCLRVKVG,0.346 ± 0.046,0.55 ± 0.031,0.597 ± 0.017,0.452 ± 0.029,0.6276 ± 0.00027,0.16 ± 0.016,0.193 ± 0.015,0.3637 ± 0.0019
LKFSLLLPVQVI,0.3606 ± 0.0013,0.327 ± 0.014,0.3735 ± 0.0026,0.301 ± 0.03,0.403 ± 0.0053,0.253 ± 0.0088,0.283 ± 0.025,0.337 ± 0.0053
LLGHLFTMLVIY,0.308 ± 0.014,0.211 ± 0.18,0.157 ± 0.023,0.286 ± 0.053,0.366 ± 0.0077,0.397 ± 0.0055,0.234 ± 0.019,0.311 ± 0.012

Sequence,protein stability index [1],"protein stability index [2, 3]","protein stability index [2, 4]","protein stability index [2, 5]","protein stability index [2, 6]","protein stability index [2, 7]","protein stability index [2, 8]","protein stability index [2, 9]"
LLLLRCLWISHA,0.244 ± 0.015,0.324 ± 0.053,0.441 ± 0.029,0.319 ± 0.039,0.5121 ± 0.0012,0.125 ± 0.019,0.145 ± 0.026,0.258 ± 0.0082
LLPLLFFFLCLP,0.4989 ± 0.0038,0.592 ± 0.058,0.584 ± 0.0088,0.495 ± 0.035,0.5602 ± 0.0049,0.462 ± 0.006,0.452 ± 0.02,0.529 ± 0.014
LLPSPLLLYSLS,0.451 ± 0.028,0.556 ± 0.03,0.578 ± 0.019,0.434 ± 0.022,0.6022 ± 0.0024,0.3814 ± 0.0018,0.412 ± 0.017,0.562 ± 0.015
LLRLCGFPLGVG,0.4497 ± 0.00073,0.466 ± 0.027,0.54 ± 0.0086,0.488 ± 0.014,0.55 ± 0.0049,0.41 ± 0.014,0.4004 ± 0.002,0.51 ± 0.017
LLRLPLLALLFV,0.111 ± 0.0047,0.236 ± 0.028,0.227 ± 0.0089,0.233 ± 0.026,0.356 ± 0.0077,0.337 ± 0.02,0.222 ± 0.033,0.324 ± 0.016
LLSAFPYLPVFA,0.337 ± 0.0066,0.277 ± 0.025,0.326 ± 0.048,0.251 ± 0.02,0.3941 ± 0.0035,0.2141 ± 0.00033,0.244 ± 0.022,0.373 ± 0.044
LLVRSFIFPLVY,0.367 ± 0.034,0.3906 ± 0.0039,0.428 ± 0.018,0.294 ± 0.053,0.482 ± 0.018,0.282 ± 0.016,0.289 ± 0.013,0.441 ± 0.012
LLVVGPVRLVVH,0.262 ± 0.023,0.214 ± 0.019,0.259 ± 0.0027,0.201 ± 0.034,0.346 ± 0.017,0.168 ± 0.0078,0.18 ± 0.026,0.321 ± 0.012
LLYPSKFCITAI,0.374 ± 0.016,0.506 ± 0.024,0.559 ± 0.03,0.413 ± 0.032,0.575 ± 0.016,0.248 ± 0.007,0.272 ± 0.027,0.431 ± 0.0044
LLYYMPELLILT,0.28 ± 0.018,0.152 ± 0.0021,0.145 ± 0.028,0.208 ± 0.0081,0.273 ± 0.0049,0.242 ± 0.013,0.199 ± 0.025,0.264 ± 0.007
LMLIPRLLVGAH,0.291 ± 0.014,0.181 ± 0.034,0.172 ± 0.0025,0.184 ± 0.029,0.2958 ± 0.0022,0.152 ± 0.008,0.181 ± 0.018,0.2523 ± 0.0011
LPFFSFSPWWFY,0.262 ± 0.033,0.773 ± 0.042,0.808 ± 0.026,0.736 ± 0.04,0.817 ± 0.029,0.209 ± 0.036,0.24 ± 0.036,0.497 ± 0.018
LPIFWVWFSVFR,0.349 ± 0.0062,0.232 ± 0.012,0.243 ± 0.022,0.269 ± 0.035,0.445 ± 0.027,0.334 ± 0.027,0.257 ± 0.034,0.3973 ± 0.0026
LPLHPHRSRYLV,0.21 ± 0.021,0.593 ± 0.033,0.691 ± 0.018,0.674 ± 0.019,0.702 ± 0.031,0.101 ± 0.015,0.0982 ± 0.0075,0.203 ± 0.02
LPPPTPRSVLLN,0.51 ± 0.076,0.644 ± 0.039,0.737 ± 0.034,0.672 ± 0.019,0.732 ± 0.015,0.296 ± 0.019,0.315 ± 0.04,0.5546 ± 0.0016
LPSPPSSPPLRP,0.508 ± 0.019,0.6542 ± 0.0027,0.57161 ± 0.00026,0.597 ± 0.0064,0.732 ± 0.045,0.5877 ± 0.0035,0.599 ± 0.017,0.701 ± 0.039
LPSRWVPLPTPA,0.508 ± 0.016,0.5362 ± 0.0003,0.569 ± 0.024,0.407 ± 0.037,0.59 ± 0.004,0.38 ± 0.016,0.413 ± 0.022,0.56219 ± 0.00016
LPTLDCPLHRLF,0.559 ± 0.084,0.694 ± 0.026,0.8 ± 0.0093,0.641 ± 0.012,0.7615 ± 0.0076,0.674 ± 0.016,0.654 ± 0.0035,0.733 ± 0.016
LQCVYFVFFICF,0.399 ± 0.051,0.2682 ± 0.0023,0.4 ± 0.016,0.266 ± 0.018,0.412 ± 0.0067,0.235 ± 0.0054,0.251 ± 0.015,0.37 ± 0.032
